Holding throughout (assay): cryo-EM structure
For assay [1], the target named is Rad24-RFC clamp loader (Rad24, Rfc2, Rfc3, Rfc4, Rfc5) (S. cerevisiae, UniProt P32641;P40348;P38629;P40339;P38251).
Assay [2] concerns the target T1, Ddc1 (S. cerevisiae, UniProt Q08949 1-612).
T1 sequence: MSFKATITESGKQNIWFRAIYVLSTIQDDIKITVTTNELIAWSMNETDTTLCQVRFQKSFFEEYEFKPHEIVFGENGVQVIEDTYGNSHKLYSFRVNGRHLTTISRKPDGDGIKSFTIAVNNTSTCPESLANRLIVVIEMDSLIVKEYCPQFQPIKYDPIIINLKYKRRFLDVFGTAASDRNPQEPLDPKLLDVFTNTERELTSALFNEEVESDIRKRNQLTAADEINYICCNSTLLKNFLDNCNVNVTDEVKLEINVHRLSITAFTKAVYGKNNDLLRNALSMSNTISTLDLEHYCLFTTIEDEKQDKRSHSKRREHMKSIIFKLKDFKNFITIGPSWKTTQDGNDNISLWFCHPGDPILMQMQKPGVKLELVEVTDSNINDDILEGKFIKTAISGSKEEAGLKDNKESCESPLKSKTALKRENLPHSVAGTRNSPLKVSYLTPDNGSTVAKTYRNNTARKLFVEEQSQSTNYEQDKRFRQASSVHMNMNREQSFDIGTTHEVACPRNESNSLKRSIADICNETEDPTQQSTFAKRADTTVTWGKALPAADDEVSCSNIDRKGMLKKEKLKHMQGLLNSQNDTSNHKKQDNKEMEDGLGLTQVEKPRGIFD

In assay [3] the target is T2, His-PK-Mec3 (S. cerevisiae, UniProt Q02574 1-474).
T2 sequence: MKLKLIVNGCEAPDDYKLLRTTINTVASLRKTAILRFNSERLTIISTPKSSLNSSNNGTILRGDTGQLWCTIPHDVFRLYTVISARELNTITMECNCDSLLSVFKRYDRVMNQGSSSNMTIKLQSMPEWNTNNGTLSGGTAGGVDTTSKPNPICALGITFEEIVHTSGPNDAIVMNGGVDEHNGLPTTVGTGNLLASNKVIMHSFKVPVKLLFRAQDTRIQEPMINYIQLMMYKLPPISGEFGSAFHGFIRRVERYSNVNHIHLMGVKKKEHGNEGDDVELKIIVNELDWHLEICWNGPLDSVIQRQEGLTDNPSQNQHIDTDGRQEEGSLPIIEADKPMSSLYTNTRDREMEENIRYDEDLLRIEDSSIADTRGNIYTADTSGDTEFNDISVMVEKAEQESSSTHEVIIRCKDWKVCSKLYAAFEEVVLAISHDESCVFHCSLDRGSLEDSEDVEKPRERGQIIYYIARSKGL

B1: 9-1-1 clamp (Ddc1–Mec3–Rad17) (complex)
chain 1: T1 sequence
chain 2: T2 sequence
chain 3: MRINSELANKFSASTVHLEHITTALSCLTPFGSKDDVLIFIDADGLSFVRENNHVIKIQLLLSRELFMSYSYRNETEDHMKLCVKINHILDSVSVMNRNSDDIVECTLSYDGHGSPFVLIFEDSFISERVEYSTYLIKDFDTNGLELDRERISFEAIIKGEALHSALKDLKEIGCKECYVYAKTEANDENVFALISKSQLGFSKIKLPSNRSILEKLQVFDGDSTTVIDGFAVIGFFDFTSFDKIRKSTKIASKVLFRMDVHGVLSVNILSQTDDVIITDTTRPSNNRPGSIRQLQLPKDYPGIVIEVCMLEKESIDEAAQTEIELLMETNELGNRNSFKKSTIRKRYGTDKGNETSNDNLLQLNGKKIKLPSEEENNKNRESEDEENHCKYPTKDIPIFF
Take B1: in assay [1], the binding result was “binds”.

B2: Rad17 (natural protein)
chain: B1 chain 3
B2: the binding result in assay [2] and in assay [3] was “binds” each time.
